tested on: amino acid at a terminal position of a polypeptide; assay: not given; conditions: Table 2; amino acid identity at a terminal position (phosphotyrosine also internal); inferred from literature and/or demonstrated by the inventors; cited from earlier work

Molecule	Binding Pref.
PS502: UBR-box domain homolog, SEQ ID NO: 130 (protein, listed as Helobdella robusta) MVCLKVFKLGEPTYSCRSVTCGMDPTCVLCVDCFQNSSHKLHKYKMSTSGGGGYCDCGDLEAWKADPLCDLHKL	K, R, H
PS501: UBR-box domain homolog, SEQ ID NO: 129 (protein, listed as Amanita thiersii) MICGQIIGKGESCFRCRDCGLDESCVMCSQCFHATDHINHNVSFFVSQQPGGCCDCGDEEAWKKPMNCPYHPP	K, R, H
Saccharomyces cerevisiae GID10: SEQ ID NO: 125 (protein, listed as Saccharomyces cerevisiae) MTSLNIMGRKFILERAKRNDNIEEIYTSAYVSLPSSTDTRLPHFKAKEEDCDVYEEGTNLVGKNAKYTYRSLGRHLDFLRPGLRFGGSQSSKYTYYTVEVKIDTVNLPLYKDSRSLDPHVTGTFTIKNLTPVLDKVVTLFEGYVINYNQFPLCSLHWPAEETLDPYMAQRESDCSHWKRFGHFGSDNWSLTERNFGQYNHESAEFMNQRYIYLKWKERFLLDDEEQENQMLDDNHHLEGASFEGFYYVCLDQLTGSVEGYYYHPACELFQKLELVPTNCDALNTYSSGFEIA	P, M, V
PS503: UBR-box domain homolog, SEQ ID NO: 131 (protein, listed as Hydra vulgaris) MFCGRLFKVGDPTYTCKDCAADPTCVFCHDCFHQSVHTKHKYKLFASQGRGGYCDCGDKEAWTNDPACNKHKE	K, R, H
PS506: UBR-box domain homolog, SEQ ID NO: 134 (protein, listed as Capitella teleta) MLCGKVFKMGELTYSCRDCGTDPTCVLCMDCFQHSAHKKHRYKMAASGGGGYCDCGDREAWKAEPFCDVHKR	K, R, H
PS504: UBR-box domain homolog, SEQ ID NO: 132 (protein, listed as Galleria mellonella) MLCGKVFKQGEPAYSCRECGMDNTCVLCVECFKVSPHRHHKYKMGQSGGGGCCDCGDTEAWKRDPFCERHAK	K, R, H

tested on: amino acid at a terminal position of a polypeptide; assay: Amino acid binding preference of recognition proteins (Tables 1 and 2); conditions: Table 1, ClpS proteins; amino acid identity at a terminal position of a polypeptide; inferred from literature and/or demonstrated by the inventors
Description: It should be appreciated that these sequences and other examples described herein are meant to be non-limiting, and recognition molecules in accordance with the application can include any homologs, variants thereof, or fragments thereof minimally containing domains or subdomains responsible for peptide recognition.

Molecule	Binding Pref.
PS393: ClpS protein, SEQ ID NO: 21 (protein) MSDEDGEDGDENAVGIATRTRTRTKKPTPYRVLLLNDDYTPMEFVVLVLQRFFRMSIEDATRVMLQVHQKGVGVCGVFTYEVAETKVSQVIDFARQNQHPLQCTLEKA	F, Y, W, L
PS378: ClpS protein, SEQ ID NO: 11 (protein, not fully specified; X: residue not identified in the source) MXPQEVEEVSFLESKEHEIVLYNDDVNTFDHVIECLVKICNHNYLQAEQCAYIVHHSGKCGVKTGSLEELIPKCNALLEEGLSAEVI	F, Y, W, L
PS388: ClpS protein, SEQ ID NO: 16 (protein) MVTTLSADVYGMATAPTVAPERSNQVVRKTYPNYKVIVLNDDFNTFQHVAECLMKYIPGMSSDRAWDLTNQVHYEGQAIVWVGPQEPAELYHQQLRRAGLTMAPLEAA	F, Y, L
PS380: ClpS protein, SEQ ID NO: 13 (protein) MGDIYGESNPEEVSCIDSLSEEGNELILFNDNIHTFEYVIDCLVAICSLSYEQASNCAYIVDRKGLCTVKHGSYDELLIMYHALVEKDLKVEIR	F, W
Plasmodium falciparum ClpS: ClpS protein, SEQ ID NO: 110 (protein, listed as Plasmodium falciparum) MFKDLKPFFLCIILLLLLIYKCTHSYNIKNKNCPLNFMNSCVRINNVNKNTNISFPKELQKRPSLVYSQKNFNLEKIKKLRNVIKEIKKDNIKEADEHEKKEREKETSAWKVILYNDDIHNFTYVTDVIVKVVGQISKAKAHTITVEAHSTGQALILSTWKSKAEKYCQELQQNGLTVSIIHESQLKDKQKK	F, W, Y, L
PS390: ClpS protein, SEQ ID NO: 18 (protein) MLSIAAVTEAPSKGVQTADPKTVRKPYPNYKVIVLNDDFNTFQHVSSCLLKYIPGMSEARAWELTNQVHFEGLAVVWVGPQEQAELYYAQLKNAGLTMAPPEPA	F, Y, L
PS368: ClpS protein, SEQ ID NO: 1 (protein) MASAPSTTLDKSTQVVKKTYPNYKVIVLNDDLNTFDHVANCLIKYIPDMTTDRAWELTNQVHYQGQAIVWTGPQEQAELYHQQLRREGLTMAPLEAA	F, Y, W, L
PS392: ClpS protein, SEQ ID NO: 20 (protein) MSVEIIEKRSTVRKLAPRYRVLLHNDDFNPMEYVVQTLMATVPSLTQPQAVNVMMEAHTNGMGLVIVCALEHAEFYAETLNNHGLGSSIEPDD	F, Y, W
PS395: ClpS protein, SEQ ID NO: 23 (protein) MTVSQSKTQGAPAAQSATELEYEGLWRVVVLNDPVNLMSYVVLVFKKVFGFDETTARKHMLEVHEQGRSVVWSGMREKAEAYAFTLQQWHLTTVLEQDEVR	F, Y, W, L
PS391: ClpS protein, SEQ ID NO: 19 (protein) MGQTVEKPRVEGPGTGLGGSWRVIVRNDDHNTFDHVARTLARFIPGVSLERGHEIAKVIHTTGRAVVYTGHKEAAEHYWQQLKGAGLTMAPLEQG	F, Y, W, L
PS394: ClpS protein, SEQ ID NO: 22 (protein) MAERRDTGDDEGTGLGIATKTRSKTKKPTPYRVLMLNDDYTPMEFVVLCLQRFFRMNMEEATRVMLHVHQKGVGVCGVFSYEVAETKVGQVIDFARANQHPLQCTLEKA	F, Y, W, L
PS389: ClpS protein, SEQ ID NO: 17 (protein) MLNSAAFKAASASPVIAPERSGQVTQKPYPTYKVIVLNDDFNTFQHVHDCLVKYIPGMTSDRAWQLTHQVHNDGQAIVWVGPQEQAELYHQQLSRAGLTMAPIEAA	F, Y, L
PS382: ClpS protein, SEQ ID NO: 15 (protein) MSDSPVIKEIKKDNIKEADEHEKKEREKETSAWKVILYNDDIHNFTYVTDVIVKVVGQISKAKAHTITVEAHSTGQALILSTWKSKAEKYCQELQQNGLTVSIIHESQLKDKQKK	F, Y, W, L
Escherichia coli ClpS: ClpS protein, SEQ ID NO: 108 (protein, listed as Escherichia coli) MGKTNDWLDFDQLAEEKVRDALKPPSMYKVILVNDDYTPMEFVIDVLQKFFSYDVERATQLMLAVHYQGKAICGVFTAEVAETKVAMVNKYARENEHPLLCTLEKA	F, W, Y, L
Escherichia coli ClpS M40A: ClpS protein, SEQ ID NO: 109 (protein, listed as Escherichia coli) MGKTNDWLDFDQLAEEKVRDALKPPSMYKVILVNDDYTPAEFVIDVLQKFFSYDVERATQLMLAVHYQGKAICGVFTAEVAETKVAMVNKYARENEHPLLCTLEKA	F, W, Y, L
